Assay results published in US20090117107A1.

Molecular target: rRANKL (Cambrex) (UniProt O14788)
Assay: cell-based or functional assay

Sequence of UniProt O14788 (O14788 140-317 limits assumed): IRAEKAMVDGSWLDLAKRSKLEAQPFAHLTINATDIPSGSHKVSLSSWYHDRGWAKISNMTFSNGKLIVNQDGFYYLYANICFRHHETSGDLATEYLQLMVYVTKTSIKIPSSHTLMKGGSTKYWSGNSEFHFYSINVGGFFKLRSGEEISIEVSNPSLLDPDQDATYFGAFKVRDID

Substance: Recombinant OPG (R&D cat185-05-025) (from UniProt O00300 22-401) (receptor)
- rRANKL-induced OC differentiation in OCP-RASF coculture, αvβ3 integrin cELISA luminescent readout (ng/mL rRANKL inhibited by 22 ng/mL rOPG): < 7.5
- rRANKL-induced OC differentiation in OCP-RASF coculture, αvβ3 integrin cELISA luminescent readout (ng/mL rRANKL inhibited by 66 ng/mL rOPG): < 15
